Experimental data published in patent US20260274985A1 (MYTHIC THERAPEUTICS, published 2026).

B1: MYT11643 (antibody, V domains shown)
VH: QVQLVQSGAEVKKPGASVKVSCKASGYTFTTAHMQWVRQAPGQGLEWMGWINTHSGVPKYAEDFKGRVTISADTSTSTAYLQLSSLKSEDTAVYYCARSGFGSSYWYFDVWGQGTLVTVSS
VL: DIQMTQSPSSLSASVGDRVTITCKASQDVSTAVAWYQQKPGKAPKLLIYSASYRYTGVPSRFSGSGSGTDFTLTISSLQPEDFAVYYCQQHYITPLTFGQGTKLEIK
notes: IgG from supernatant; His at HCV position 33; also called datopotamab variant H1 08
B2: MYT11663 (antibody, V domains shown)
VH: QVQLVQSGAEVKKPGASVKVSCKASGYTFTTAGMQWVRQAPGQGLEWMGWINTHSGVPKYAEDFKGRVTISADTSTSTAYLQLSSLKSEDTAVYYCHRSGFGSSYWYFDVWGQGTLVTVSS
VL: DIQMTQSPSSLSASVGDRVTITCKASQDVSTAVAWYQQKPGKAPKLLIYSASYRYTGVPSRFSGSGSGTDFTLTISSLQPEDFAVYYCQQHYITPLTFGQGTKLEIK
notes: IgG from supernatant; His at HCV position 97; also called datopotamab variant H3 01
B3: MYT12412 (hu7E6SVG variant, HCV substitutions at 33, 103) (antibody, V domains shown)
VH: QVQLQESGPGLVKPSETLSLTCTVSGGSISSYHVHWIRQPPGKGLEWIGVIWTSGVTDYNSALMGRVTISVDTSKNQFSLKLSSVTAADTAVYYCARDGDYDHYTMDYWGQGTLVTVSS
VL: DIVMTQSPDSLAVSLGERATINCRASKSVSTSGYSYMHWYQQKPGQPPKLLIYLASNLESGVPDRFSGSGSGTDFTLTISSLQAEDVAVYYCQHSRELPYTFGQGTKLEIK
B4: MYT12416 (hu7E6SVG variant, HCV substitutions at 34, 102) (antibody, V domains shown)
VH: QVQLQESGPGLVKPSETLSLTCTVSGGSISSYGHHWIRQPPGKGLEWIGVIWTSGVTDYNSALMGRVTISVDTSKNQFSLKLSSVTAADTAVYYCARDGDYHRYTMDYWGQGTLVTVSS
VL: DIVMTQSPDSLAVSLGERATINCRASKSVSTSGYSYMHWYQQKPGQPPKLLIYLASNLESGVPDRFSGSGSGTDFTLTISSLQAEDVAVYYCQHSRELPYTFGQGTKLEIK
B5: MYT12417 (hu7E6SVG variant, HCV substitutions at 34, 103) (antibody, V domains shown)
VH: QVQLQESGPGLVKPSETLSLTCTVSGGSISSYGHHWIRQPPGKGLEWIGVIWTSGVTDYNSALMGRVTISVDTSKNQFSLKLSSVTAADTAVYYCARDGDYDHYTMDYWGQGTLVTVSS
VL: DIVMTQSPDSLAVSLGERATINCRASKSVSTSGYSYMHWYQQKPGQPPKLLIYLASNLESGVPDRFSGSGSGTDFTLTISSLQAEDVAVYYCQHSRELPYTFGQGTKLEIK
B6: MYT12420 (hu7E6SVG variant, HCV substitutions at 51, 102) (antibody, V domains shown)
VH: QVQLQESGPGLVKPSETLSLTCTVSGGSISSYGVHWIRQPPGKGLEWIGVHWTSGVTDYNSALMGRVTISVDTSKNQFSLKLSSVTAADTAVYYCARDGDYHRYTMDYWGQGTLVTVSS
VL: DIVMTQSPDSLAVSLGERATINCRASKSVSTSGYSYMHWYQQKPGQPPKLLIYLASNLESGVPDRFSGSGSGTDFTLTISSLQAEDVAVYYCQHSRELPYTFGQGTKLEIK
B7: MYT12421 (hu7E6SVG variant, HCV substitutions at 51, 103) (antibody, V domains shown)
VH: QVQLQESGPGLVKPSETLSLTCTVSGGSISSYGVHWIRQPPGKGLEWIGVHWTSGVTDYNSALMGRVTISVDTSKNQFSLKLSSVTAADTAVYYCARDGDYDHYTMDYWGQGTLVTVSS
VL: DIVMTQSPDSLAVSLGERATINCRASKSVSTSGYSYMHWYQQKPGQPPKLLIYLASNLESGVPDRFSGSGSGTDFTLTISSLQAEDVAVYYCQHSRELPYTFGQGTKLEIK
B8: MYT12424 (hu7E6SVG variant, HCV substitutions at 56, 103) (antibody, V domains shown)
VH: QVQLQESGPGLVKPSETLSLTCTVSGGSISSYGVHWIRQPPGKGLEWIGVIWTSGHTDYNSALMGRVTISVDTSKNQFSLKLSSVTAADTAVYYCARDGDYDHYTMDYWGQGTLVTVSS
VL: DIVMTQSPDSLAVSLGERATINCRASKSVSTSGYSYMHWYQQKPGQPPKLLIYLASNLESGVPDRFSGSGSGTDFTLTISSLQAEDVAVYYCQHSRELPYTFGQGTKLEIK
B9: MYT12425 (hu7E6SVG variant, HCV substitutions at 56, 106) (antibody, V domains shown)
VH: QVQLQESGPGLVKPSETLSLTCTVSGGSISSYGVHWIRQPPGKGLEWIGVIWTSGHTDYNSALMGRVTISVDTSKNQFSLKLSSVTAADTAVYYCARDGDYDRYTHDYWGQGTLVTVSS
VL: DIVMTQSPDSLAVSLGERATINCRASKSVSTSGYSYMHWYQQKPGQPPKLLIYLASNLESGVPDRFSGSGSGTDFTLTISSLQAEDVAVYYCQHSRELPYTFGQGTKLEIK
B10: MYT12351 (antibody, V domains shown)
VH: QVQLQQSGSELKKPGASVKVSCKASGYTFTNYGMNWVKQAPGQGLKWMGWINTYTGEPTYTDDFKGRFAFSLDTSVSTAYLQISSLKADDTAVYFCARGGFGSSYWYFDVWGQGSLVTVSS
VL: DIQLTQSPSSLSASVGDRVSITCKASQDVSIAVAWYQQKPGKAPKLLIYSHSYRYTGVPDRFSGSGSGTDFTLTISSLQPEDFAVYYCQQHHITPLTFGAGTKVEIK
notes: sacituzumab VL 51, 92 -> H
B11: MYT12352 (antibody, V domains shown)
VH: QVQLQQSGSELKKPGASVKVSCKASGYTFTNYGMNWVKQAPGQGLKWMGWINTYTGEPTYTDDFKGRFAFSLDTSVSTAYLQISSLKADDTAVYFCARGGFGSSYWYFDVWGQGSLVTVSS
VL: DIQLTQSPSSLSASVGDRVSITCKASQDVSIAVAWYQQKPGKAPKLLIYSHSYRYTGVPDRFSGSGSGTDFTLTISSLQPEDFAVYYCQQHYHTPLTFGAGTKVEIK
notes: sacituzumab VL 51, 93 -> H
B12: MYT12353 (antibody, V domains shown)
VH: QVQLQQSGSELKKPGASVKVSCKASGYTFTNYGMNWVKQAPGQGLKWMGWINTYTGEPTYTDDFKGRFAFSLDTSVSTAYLQISSLKADDTAVYFCARGGFGSSYWYFDVWGQGSLVTVSS
VL: DIQLTQSPSSLSASVGDRVSITCKASQDVSIAVAWYQQKPGKAPKLLIYSAHHRYTGVPDRFSGSGSGTDFTLTISSLQPEDFAVYYCQQHYITPLTFGAGTKVEIK
notes: sacituzumab VL 52, 53 -> H
B13: MYT12357 (antibody, V domains shown)
VH: QVQLQQSGSELKKPGASVKVSCKASGYTFTNYGMNWVKQAPGQGLKWMGWINTYTGEPTYTDDFKGRFAFSLDTSVSTAYLQISSLKADDTAVYFCARGGFGSSYWYFDVWGQGSLVTVSS
VL: DIQLTQSPSSLSASVGDRVSITCKASQDVSIAVAWYQQKPGKAPKLLIYSAHYRYTGVPDRFSGSGSGTDFTLTISSLQPEDFAVYYCQQHYHTPLTFGAGTKVEIK
notes: sacituzumab VL 52, 93 -> H
B14: MYT12364 (antibody, V domains shown)
VH: QVQLQQSGSELKKPGASVKVSCKASGYTFTNYGMNWVKQAPGQGLKWMGWINTYTGEPTYTDDFKGRFAFSLDTSVSTAYLQISSLKADDTAVYFCARGGFGSSYWYFDVWGQGSLVTVSS
VL: DIQLTQSPSSLSASVGDRVSITCKASQDVSIAVAWYQQKPGKAPKLLIYSASYRYTGVPDRFSGSGSGTDFTLTISSLQPEDFAVYYCHQHYHTPLTFGAGTKVEIK
notes: sacituzumab VL 89, 93 -> H
B15: MYT12374 (antibody, V domains shown)
VH: QVQLQQSGSELKKPGASVKVSCKASGYTFTNYGMNWVKQAPGQGLKWMGWINTYTGEPTYTDDFKGRFAFSLDTSVSTAYLQISSLKADDTAVYFCARGGFGSSYWYFDVWGQGSLVTVSS
VL: DIQLTQSPSSLSASVGDRVSITCKASQDVSIAVAWYQQKPGKAPKLLIYSHSHRYTGVPDRFSGSGSGTDFTLTISSLQPEDFAVYYCHQHYITPLTFGAGTKVEIK
notes: sacituzumab VL 51, 53, 89 -> H
B16: MYT12376 (antibody, V domains shown)
VH: QVQLQQSGSELKKPGASVKVSCKASGYTFTNYGMNWVKQAPGQGLKWMGWINTYTGEPTYTDDFKGRFAFSLDTSVSTAYLQISSLKADDTAVYFCARGGFGSSYWYFDVWGQGSLVTVSS
VL: DIQLTQSPSSLSASVGDRVSITCKASQDVSIAVAWYQQKPGKAPKLLIYSHSYRYTGVPDRFSGSGSGTDFTLTISSLQPEDFAVYYCHQHYHTPLTFGAGTKVEIK
notes: sacituzumab VL 51, 89, 93 -> H
B17: MYT12377 (antibody, V domains shown)
VH: QVQLQQSGSELKKPGASVKVSCKASGYTFTNYGMNWVKQAPGQGLKWMGWINTYTGEPTYTDDFKGRFAFSLDTSVSTAYLQISSLKADDTAVYFCARGGFGSSYWYFDVWGQGSLVTVSS
VL: DIQLTQSPSSLSASVGDRVSITCKASQDVSIAVAWYQQKPGKAPKLLIYSASHRYTGVPDRFSGSGSGTDFTLTISSLQPEDFAVYYCHQHYHTPLTFGAGTKVEIK
notes: sacituzumab VL 53, 89, 93 -> H
B18: MYT12464 (hu7E6SVG variant, LCV substitutions at 60, 93, 94 (Ala at 94)) (antibody, V domains shown)
VH: QVQLQESGPGLVKPSETLSLTCTVSGGSISSYGVHWIRQPPGKGLEWIGVIWTSGVTDYNSALMGRVTISVDTSKNQFSLKLSSVTAADTAVYYCARDGDYDRYTMDYWGQGTLVTVSS
VL: DIVMTQSPDSLAVSLGERATINCRASKSVSTSGYSYMHWYQQKPGQPPKLLIYLASNLEHGVPDRFSGSGSGTDFTLTISSLQAEDVAVYYCHASRELPYTFGQGTKLEIK
notes: Full IgG in Expi293 supernatant
B19: MYT12465 (hu7E6SVG variant, LCV substitutions at 60, 93, 97) (antibody, V domains shown)
VH: QVQLQESGPGLVKPSETLSLTCTVSGGSISSYGVHWIRQPPGKGLEWIGVIWTSGVTDYNSALMGRVTISVDTSKNQFSLKLSSVTAADTAVYYCARDGDYDRYTMDYWGQGTLVTVSS
VL: DIVMTQSPDSLAVSLGERATINCRASKSVSTSGYSYMHWYQQKPGQPPKLLIYLASNLEHGVPDRFSGSGSGTDFTLTISSLQAEDVAVYYCHHSRHLPYTFGQGTKLEIK
notes: as for B18

What follows are binders tested against T1, Human TROP2 Protein, His Tag (human, UniProt P09758 27-274) (assay: BLI (Octet)).
T1 construct: Bought protein; also called TACSTD2; not shown: His tag
T1 sequence (looked up): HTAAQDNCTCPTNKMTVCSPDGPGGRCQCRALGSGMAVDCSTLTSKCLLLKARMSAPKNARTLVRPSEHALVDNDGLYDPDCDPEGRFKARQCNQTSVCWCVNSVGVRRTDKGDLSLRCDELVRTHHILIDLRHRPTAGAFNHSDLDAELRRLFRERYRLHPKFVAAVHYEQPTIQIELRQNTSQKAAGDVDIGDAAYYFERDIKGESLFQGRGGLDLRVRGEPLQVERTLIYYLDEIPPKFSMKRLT
B1: no binding (tested: 50 nM).
B2: no binding (tested: 50 nM).

What follows are binders tested against T2, Human TROP2 Protein, His Tag (Acro Biosystems) (human, UniProt P09758 27-274) (assay: BLI (Octet)).
T2 construct: Bought protein; also called TACSTD2; not shown: His tag
T2 sequence: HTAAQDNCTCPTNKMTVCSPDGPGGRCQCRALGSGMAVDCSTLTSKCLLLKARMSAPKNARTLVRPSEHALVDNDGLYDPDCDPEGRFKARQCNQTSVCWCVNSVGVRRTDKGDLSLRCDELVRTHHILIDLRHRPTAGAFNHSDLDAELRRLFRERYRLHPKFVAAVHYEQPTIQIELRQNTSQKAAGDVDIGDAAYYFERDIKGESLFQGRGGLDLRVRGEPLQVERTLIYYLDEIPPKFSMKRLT
B3: binds.
B4: binds.
B5: binds.
B6: binds.
B7: binds.
B8: binds.
B9: binds.

These binders were tested against T3, Human TROP2 Protein, His Tag (Acro Biosystems) (human, UniProt P09758 27-274) (assay: BLI (Octet) [2/2]).
T3 construct: not shown: His tag
T3 sequence (looked up): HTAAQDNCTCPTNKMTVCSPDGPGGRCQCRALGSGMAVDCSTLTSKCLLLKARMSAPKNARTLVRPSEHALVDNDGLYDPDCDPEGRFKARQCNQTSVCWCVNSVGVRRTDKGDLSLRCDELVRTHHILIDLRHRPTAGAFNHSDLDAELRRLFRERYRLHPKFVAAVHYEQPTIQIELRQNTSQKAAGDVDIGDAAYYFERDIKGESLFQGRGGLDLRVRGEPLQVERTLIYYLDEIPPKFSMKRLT
B10: binds.
B11: binds.
B12: binds.
B13: binds.
B14: binds.
B15: binds.
B16: binds.
B17: binds.

What follows are binders tested against T2, Human TROP2 Protein, His Tag (Acro …) (assay: BLI (Octet), antibody on anti-human Fc sensor, human TROP2-His in solution; legend: 3=No binding).
B18: no binding (tested: 50 nM).
B19: no binding (tested: 50 nM).
